{"source": "patent US20250236850", "proteins": {"B1": {"name": "Truncated variant of AN4663 lacking the transmembrane region (positions 1-224) (protein)", "chain": "LNNIIADDGFALVARQDSTTGYISVLDNLEDGFRVMRCDHSLLGGQWIKKRPNYTPPAVKDPIYAVFTMLEAVRLVETAHGIPRADAGSNALVIGLGIGTTPGALISHGIDTTIVEIDPVVHKYALQYFDLPENHTPIIEDARAFVQRSRNAPQPKQYDYIVHDVFTGGAEPVELFTYEFISGLHALLKDDGVIAINYAGDISLYSTALSIRTIKSIFPTCRLFREAAAPEIGPDFTNMVIFCTKSRGAPITFRDPVPEDFLGSRFRSRYLVPKHEVDAAQFDNVGLEDGPQGHGRRVLVDKEVGRLHKYQDRSALEHWGIMRTVLPDRVWEGW"}, "B2": {"name": "AN4663 N-terminal histidine methyltransferase (NHMT) from Aspergillus nidulans (protein)", "chain": "MAPFRSIYEKDATKKLVVGAALLVLAAFYSYVFLLTLAPVYGSTPSHIFHGYGVGIAGVAGWFSKDIVDRVSGRKAIYAIPVLAFFLPVVQYFVSQQSSALGNPAGPIFTEVLALYPLVLLSVACAGKLVQAGLNLQRHGDLVAEHIPLLGSYVIYSAGEHLIKAFLSRFIGSTVLLSRAGLQILIAIFYAAAVPSKALLLAIPAFLFSVTSNTHLPLGHTTTALNNIIADDGFALVARQDSTTGYISVLDNLEDGFRVMRCDHSLLGGQWIKKRPNYTPPAVKDPIYAVFTMLEAVRLVETAHGIPRADAGSNALVIGLGIGTTPGALISHGIDTTIVEIDPVVHKYALQYFDLPENHTPIIEDARAFVQRSRNAPQPKQYDYIVHDVFTGGAEPVELFTYEFISGLHALLKDDGVIAINYAGDISLYSTALSIRTIKSIFPTCRLFREAAAPEIGPDFTNMVIFCTKSRGAPITFRDPVPEDFLGSRFRSRYLVPKHEVDAAQFDNVGLEDGPQGHGRRVLVDKEVGRLHKYQDRSALEHWGIMRTVLPDRVWEGW"}, "B3": {"name": "AN4663 with E340A substitution (strain NID2787) (protein)", "chain": "B2 chain with E340A"}, "B4": {"name": "C-terminally mRFP-tagged AN4663 (strain NID2794) (protein)", "chain": "B2 chain"}, "B5": {"name": "N-terminally mRFP-tagged AN4663 (strain NID2789) (protein)", "chain": "B2 chain"}}, "key": {"[1]": {"target": "T1, AN4702 protein of Aspergillus nidulans (uniprot entry Q5B428), native N-terminally histidine-methylated protein, Q5B428", "T1 chain": "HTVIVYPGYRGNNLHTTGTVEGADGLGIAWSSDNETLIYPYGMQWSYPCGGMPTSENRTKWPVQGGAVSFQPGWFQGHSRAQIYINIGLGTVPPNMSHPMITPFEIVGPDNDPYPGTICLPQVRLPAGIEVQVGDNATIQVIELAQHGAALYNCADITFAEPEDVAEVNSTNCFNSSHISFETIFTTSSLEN"}, "[2]": {"target": "T2, AA9A LPMO from Lentinus similis (LsAA9A), secreted by K. phaffii, His6-tagged", "T2 chain": "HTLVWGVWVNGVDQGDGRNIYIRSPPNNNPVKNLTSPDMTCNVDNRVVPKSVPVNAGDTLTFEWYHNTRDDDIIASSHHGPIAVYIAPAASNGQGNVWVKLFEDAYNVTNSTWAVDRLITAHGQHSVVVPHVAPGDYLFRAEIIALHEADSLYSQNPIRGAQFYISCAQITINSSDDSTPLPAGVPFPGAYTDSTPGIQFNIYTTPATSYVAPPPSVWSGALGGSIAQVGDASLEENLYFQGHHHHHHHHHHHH"}}, "note": "Substitutions are numbered along the chain they refer to. Names and notes keep the numbering of the source.", "data": [{"protein": "B1", "values": [{"measurement": "PRM quantification of methylated and unmethylated N-terminal peptide after truncation of AN4663", "setting": "[1]", "value": "the expression of this variant abolished the N-terminal histidine methylation capacity of the enzyme"}]}, {"protein": "B2", "values": [{"measurement": "PRM assay of N-terminal histidine methylation of the AN4702 peptide in A. nidulans knockout strains", "setting": "[1]", "value": "the knockout of the gene [SEQ ID NO.: 1] encoding AN4663 (uniprot entry Q5B467) [SEQ ID NO.: 2] abolished the N-terminal histidine methylation on the monitored peptides and conversely, the unmethylated form was observed"}, {"measurement": "methylation stoichiometry of the N-terminal peptide of secreted LsAA9A (targeted MS), Amy signal peptide construct, co-expression in K. phaffii", "setting": "[2]", "value": "a methylation stoichiometry on average of 65% of the peptides for the Amy signal peptide"}, {"measurement": "methylation stoichiometry of the N-terminal peptide of secreted LsAA9A (targeted MS), native signal peptide construct, co-expression in K. phaffii", "setting": "[2]", "value": "29% for the native signal peptide"}]}, {"protein": "B3", "values": [{"measurement": "PRM assay of N-terminal histidine methylation in A. nidulans (strain NID2787)", "setting": "[1]", "value": "Site-directed mutagenesis of this glutamate to an alanine (E340A) lead to a loss of N-terminal histidine methylation generating a similar methylation phenotype to a complete knockout of AN4663"}]}, {"protein": "B4", "values": [{"measurement": "PRM assay of N-terminal histidine methylation in A. nidulans (strain NID2794)", "setting": "[1]", "value": "the C-terminal mRFP tagged version was unable to methylate the LPMOs"}]}, {"protein": "B5", "values": [{"measurement": "PRM assay of N-terminal histidine methylation in A. nidulans (strain NID2789)", "setting": "[1]", "value": "methylation of LPMOs was stoichiometric for the N-terminally tagged version"}]}]}
